For the data set, the target named is SP1 (Homo sapiens, UniProt P08047 1-785). The data set can be described thus: EMSA; 10 mM Tris-HCl pH 7.5, 1 mM MgCl2, 0.5 mM EDTA, 0.5 mM DTT, 50 mM NaCl, 50 ug/ml poly(dI-dC), 4% glycerol, 35 fmol probe, 20 min, room temperature; 6% native PAGE. The settings on record: protein: recombinant; label: 3' biotin; blunt.
SP1, sequence (P08047 whole entry): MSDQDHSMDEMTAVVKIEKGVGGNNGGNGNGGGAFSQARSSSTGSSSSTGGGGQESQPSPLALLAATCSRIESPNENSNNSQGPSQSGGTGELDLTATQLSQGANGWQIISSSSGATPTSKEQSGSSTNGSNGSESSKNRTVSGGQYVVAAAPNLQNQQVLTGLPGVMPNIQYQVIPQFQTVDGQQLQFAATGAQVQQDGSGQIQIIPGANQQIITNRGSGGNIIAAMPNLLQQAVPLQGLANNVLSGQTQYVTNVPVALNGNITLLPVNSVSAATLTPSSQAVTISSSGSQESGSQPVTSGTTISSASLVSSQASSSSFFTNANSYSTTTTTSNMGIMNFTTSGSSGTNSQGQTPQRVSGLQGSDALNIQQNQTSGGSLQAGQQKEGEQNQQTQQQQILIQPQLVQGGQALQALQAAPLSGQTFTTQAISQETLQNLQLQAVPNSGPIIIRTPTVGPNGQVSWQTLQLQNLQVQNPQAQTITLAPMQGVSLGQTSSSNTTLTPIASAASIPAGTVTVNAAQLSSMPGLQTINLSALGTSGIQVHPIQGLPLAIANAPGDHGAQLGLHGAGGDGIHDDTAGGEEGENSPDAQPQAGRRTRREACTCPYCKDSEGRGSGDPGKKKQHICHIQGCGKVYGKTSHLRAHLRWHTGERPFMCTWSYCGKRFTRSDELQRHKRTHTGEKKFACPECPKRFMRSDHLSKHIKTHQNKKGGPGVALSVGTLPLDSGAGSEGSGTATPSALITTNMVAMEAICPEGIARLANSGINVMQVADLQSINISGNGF

B1: IL3 promoter rs31480 T-allele (dsDNA)
DNA 1: TGCACATATAAGGCGGGAGGTTGTTGCCAACGCTTCAGAGC
DNA 2: GCTCTGAAGCGTTGGCAACAACCTCCCGCCTTATATGTGCA
B1: the binding result was “binds”.

B2: IL3 promoter rs31480 C-allele (dsDNA)
DNA 1: TGCACATATAAGGCGGGAGGCTGTTGCCAACGCTTCAGAGC
DNA 2: GCTCTGAAGCGTTGGCAACAGCCTCCCGCCTTATATGTGCA
Take B2: the binding result is given as “no binding”.

The values are drawn from article PMC3511536, “The Interleukin 3 Gene (IL3) Contributes to Human Brain Volume Variation by Regulating Proliferation and Survival of Neural Progenitors”.
